# From the domain aggregation screens of Martell et al. (2025)
# Assay: soluble fraction after stress (log2 fold change); higher = more stays soluble; pooled small domains, quantitative proteomics
# Conditions: stress: pH 4
# In short: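 Pooled custom libraries of small protein domains were subjected to pH 4 and measured by high-throughput quantitative proteomics. The log2 fold change in soluble amount per domain is reported, higher values meaning more remained soluble. This is used as a measure of aggregation propensity.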
sequence,measurement,value
HMDAMQAFPNPTVDEIHFVTPTTGRVYNAHGQLVMVLKNAQLVNVRQWSAGQYVIVREDGYAVRWIK,soluble fraction (log2),-0.43
HMDAPQRVTYLLPHSRGEVVSWLHRQGEVVAQEYEAEGVRVVVDLRYAQIRQAAKQFDVLPAEG,soluble fraction (log2),-0.656
HMDAPRFAAGDAVRVAGLVSKPQHNGRAGSVLSYDPVSLRYIVKVDGEDEPLKLKPENVLMPA,soluble fraction (log2),0.0764
HMDAQLRVPDLTPYNYSELKENTSLYEGFTIEVVEERSTGDYAAGTVLDQDPKADTLIQDGDSTVIKLVIA,soluble fraction (log2),-0.115
HMDASFTYSLETHPAGVLVRVDGLEYETPFSILLPQGVHRLEVAGEERFFYLSETTHQFLEID,soluble fraction (log2),-0.714
HMDATGDPIADRILQALQLGELTRTQVNNVFQRHLAAARISQALNFLRSLKRADMRMEETAGRSGEVWFAI,soluble fraction (log2),-0.254
HMDAVKKKVQSTNTLLDVLKQMLPQTSSNTLRKMLTNQRITVDGETIHRAKHTVEKDQTVEIHPKP,soluble fraction (log2),≥ 0.43
HMDAVSYTQFMQDAKAGRIKKVIVHQSGILDVTTTEGRRFNLTSPGDLWMVGDLVKDGVDVVGAP,soluble fraction (log2),0.139
HMDAVTYAKGSSGETVREIQQLLLDWGYYSGEVDGIFGSRTEDAVEYFQRKNGLTVDGKVGPATLEALGIS,soluble fraction (log2),-0.349
HMDAYMIGHNIAKWRKEKGMTQDQLAEHLSVSGQAVSKWENGASLPDIAILPKLAEIFDVTMDQLFSR,soluble fraction (log2),0.166
HMDDAIAEKTGGAVSSVNQRQAILDHIREAYGIELESLRSTDIERYLDDPEIPEPVKDILRDRLRGAK,soluble fraction (log2),0.0292
HMDDDAELLLKKLSAAGGELPFHDRSEPAEIEAAFGLSKSAFKRALGKLLKAGKVVKTQQGIQLK,soluble fraction (log2),0.266
HMDDDIKNALDVLPEQYRMTVYYADVEGLAYKEIGAIMNTPIGTVMSRIHRGRSQLRVLLAAVAADR,soluble fraction (log2),-0.0958
HMDDFITLVIHTPAHAQNLRNILESHGMEVRLEDFVSFKSPVAVAQRVKIRPKDLPLALKIIESGE,soluble fraction (log2),0.126
HMDDFVEIDGKKYEIDMSFDNILRLFDLLKDKSLNDVTKIETGLIMLIDDSLDDYDTEEKADIFVQIF,soluble fraction (log2),0.22
HMDDGALQIRLGPQALQQRLDKLGYSLNKEDLDLVYQYFLHSADSKGAVYDQELRELMGEAGVE,soluble fraction (log2),-0.607
HMDDIHTFVYETETPFDPQKLDRYIGSLTAVYGQDMLRYKGILYFAGVDRRVVFQGVHMLAV,soluble fraction (log2),-0.353
HMDDILAYEIEDKEDLENLSLGKSIGINLNKLIKPTLNSFDNSLLFLSKKGNIISYGKLNGDLFKPKKVL,soluble fraction (log2),-0.454
HMDDINVSNSKNIVPNVTGHTGSKAIPVLENLGLDVQYSGFGKVTNQSIPAGTRFKKGETIYLMLE,soluble fraction (log2),-0.0218
HMDDIVFPNPTKNQINVSIDGLKNIYNLSGKLLISTNDKIIDVSILKAGVYFINTNEQFYKFVK,soluble fraction (log2),-0.797
HMDDIVPHSTKNHIIKTFLSLMNSLDIITDKNKKSLNQNVHIIFNKFNFSKKEANLFIGVLNRIQKALK,soluble fraction (log2),0.134
HMDDLFGNAIEMFNNQRYDMTYELLVQLLSETPNNEKAWQLLADTKFMLGDYDDALHIVGKAAK,soluble fraction (log2),-1.36
HMDDPWHNLANAIVAVAADDYRSALRNEDEGLLKSLELFFHSEWYRILTDVDADRLLGMLRRERS,soluble fraction (log2),-1.14
HMDDTPLNNVIKKIAALPENITLADKSAVLSAWEAYQALSVNLKAQVSNSELLIKAYETILQLEGEDQIK,soluble fraction (log2),-0.397
HMDDYRIEDMMTVVEEQVIRQKETNLSWFFKRAGSLNEIITIFLAALELIKVHRVYVKQEHNFDDIILRKE,soluble fraction (log2),-0.872
HMDEAAGVLTQLRAFIAASNLSPGLRLPPERELAEQLGVTRAELRKALAVLEAEGLLWRQVGKGTFYGARP,soluble fraction (log2),-0.523
HMDEAEELYQAVQALKPKYREVILLHYYQGLRVGEIAAILRAPQSTVSIRLRRARQMLNRMLG,soluble fraction (log2),-0.0788
HMDEALLRATLLDVLVKHHPKIGDKLDVVFALAKAWVSSGSDDDFEVLEKYMERLKPDEALMLASGFSNML,soluble fraction (log2),-0.819
HMDEDTWKLYKRAYKKYYARYMKGNMSEAAFKAWGEQAAADRDAAIEQLRATTDAALSASIIQQLKEKLNR,soluble fraction (log2),0.22
HMDEEDVLNELIRRLALTADDRLLLSLSYEDGLSSRKIATLLETSAATVQRRLAGLHHQLEQALRVMGLA,soluble fraction (log2),-0.828
HMDEEGDALDREYEDQIRLGDEAFDAEDWTSAQRAYTAALELRPDERYPKNRLRRLASLQEDV,soluble fraction (log2),0.161
HMDEETVALQKAIHSLPPKQQAVFNMRYYDEMSFREIADANETTESSAKANYHFAKAKIIEQMKR,soluble fraction (log2),0.166
HMDEILHHPSYRAIYEYMLDHKHVKTKDIAALLNVKEPRARQLLKEMIDKHFIIALGSNRNREYELL,soluble fraction (log2),0.348
HMDEKSGWLHLAPHEGALRAALYAEHAVQEERTAPDGSQWLRLVLREKHYHQIQSKYNRRLTLHTQPDPS,soluble fraction (log2),≥ 0.43
HMDENDPYEILEIDRLASDDQVKAKYRALIRENHPDVLMAKGVPQEFIDLANRKMAVINAAYDRIEKEREF,soluble fraction (log2),-0.616
HMDEPGAGYKWREDVLLRVMASHGIEESLRDDFVRHAVGFDNDDNMYLKKVEIENAAAAWVAN,soluble fraction (log2),-1.36
HMDETELLLQKAIATLPDKQRVVFNLKYFDEMKYEEMSELLETSVGALKASYHLAVKKIEQFFHDA,soluble fraction (log2),-0.241
HMDETYRRQLEDLAREHGAEYLHGILREVDPASAEAIHANNIKRVIRALEFYHLSGKKISEHNETERQ,soluble fraction (log2),-0.00358
HMDEVHYLADKERGTTWEEILIHADRDIKFLSLSATINNKNEFLEWLVSLRGTTSLIHSSTRPIPLEI,soluble fraction (log2),-0.682
HMDEVLDQFVRGQIYGYIRANPGDIYSSIRDNLGLKNGVTTYHLDVLAREEYVYSEIDGTNRRFYPSGWEE,soluble fraction (log2),-2.23
HMDEVVVVERGGVQITMSEIDAKIMELPVDVRPSYLDSPERLQNFVSNLLLEKQAAQLKSQY,soluble fraction (log2),-1.42
HMDEWDPAILYVGLDYEDAAQIATRLATSGVPYRLSPDGTMITVPDDQVNNMRLTLAGEGFPH,soluble fraction (log2),-1.12
HMDEYFNPETVVHYLRELFDTYRENGGNPFEWFHSTFESVNLNPQNYRKDLITTIEKALIEWIEIFEKQ,soluble fraction (log2),-0.553
HMDFDPDVPSREDILQAFRDSKPPLTVNALISEFGLSRDASIVGLERRMGAMQRDGQLEQTPSGWQLSV,soluble fraction (log2),0.144
HMDFFVLVGAYKTPDEAETIRAKIAFSGLDSSVSHGNDGRYRVRIGPFHSEGDARKAQSTLRANDIPGQII,soluble fraction (log2),0.18
HMDFGMPEELQKKLDKMPALKAAFEALTPGRQRGYIFYFSQPKQSKTRELRIEKSIEQIMNGKGLND,soluble fraction (log2),0.199
HMDFIEYIISEESKGLRADQAISMENDKFSRSLIQKWIKKGRVLVNGRKIKPKDIVNLNDKITINPEESIN,soluble fraction (log2),-0.597
HMDFITPYEIEQGQYEGAELYEDGKFEEAFSLSSIAAQRGMKTAQYLLGIMFLKGEYVDQSLAIGMAW,soluble fraction (log2),-1.18
HMDFPYISGIEIAAIKNREFIRIETDKAQEIAIALDKSGIPFSARFSDAEMVLTYDGSYKEQVEDIIAKA,soluble fraction (log2),-0.808
HMDFSERLARAMSLAGYTQGRLAKEVGMAQSSVNKLLNGANGSRKTVEIASVLGVRPEWLSTGAGEML,soluble fraction (log2),0.0512
HMDFSSRLKDERKRLKLSQAQLGEAGGVSKDAQLNYENGSRSPSASYLELIAREGVDVQFLLTGKRS,soluble fraction (log2),-0.0636
HMDFSYTVGDIDEPIDSRGNSVIMLRKLAWGSNAEKLEIRRWIIDIDSERANKGVTFLTEEGPHNLVRV,soluble fraction (log2),-0.332
HMDFTISDADFHRLVQFIQQNYGVALSKKRQLISSRLSHSLRELGYKDFRTFLEHLFSTRDPADLELVLNK,soluble fraction (log2),-0.399
HMDFYVILGVDRAASLSDVKRAYRRLARKHHPDINPGDPESDAFFMRVTEAYETLVDPDRRQEYDEHG,soluble fraction (log2),-1.34
HMDGEFINLKNRAGTEIEARILNYQNGQVKLERKDGVTFVVSISMFDAKSVIAINHKIAEIIDT,soluble fraction (log2),0.12
HMDGIDALEPLMRRVFEALPQRRSMTIERAAVAAGLDEESVKIALVRLQLEGYVANDERGWHRSKSPH,soluble fraction (log2),-0.000736
HMDGIGLRVRMIREGVGLTQKQLAEHLGMQRTALVQVEAGSRKLSASELIGVARFFNITVEQFLDPEK,soluble fraction (log2),-1.72
HMDGIPVPDVKGTVEAEATATLKNSGFEVTKTQDFSDTVEAGKVISQNPAGGSSAASGSSVTLVISQGPN,soluble fraction (log2),-0.232
HMDGISANAVKALIESLIAGEDKRKPLSDQAMSDRLALQGIVLARRTVAKYREELNFPPAHQRKQK,soluble fraction (log2),0.22
HMDGLPYPEAAEEPIAQVARNLGMDATRVSIALQEAKLIFRNLDETLAEIAANNGTTPQVVYDAIRHLEPP,soluble fraction (log2),-0.372
HMDGLTEQQADDILAFISIKGTNAEVLAALENYAGRNETFDTGLSELKVVASNLAAFGMPEENFVVDL,soluble fraction (log2),0.0229
HMDGPGDRLLIAIQENSMTQKKFAQLIGMSPNGLNSIIKGKKRLSRVLAIATERLTGVRADWILQNEQPK,soluble fraction (log2),-0.244
HMDGQPLSERQQEILRWVAEGLSNREIGERLNITPNTVRDHLSEVMRRLEVSNRTSAVSTAFHLGLLP,soluble fraction (log2),-0.178
HMDGRIRFRHAALHDPDVAARLHDYLTTSLPGVRSARVNSQTGSLLLEYDPEVLDRSTLLDLAARAESLL,soluble fraction (log2),-1.06
HMDGRSLSHATLEEIRIRAVQRVEAGESPEVVVKALGFSRPRIYEWLALYREGGLEALRAKPV,soluble fraction (log2),-0.53
HMDGSEYAGTVRLGDGTLQPVPRFETSNSETPKYLYLVMDVTHDPPVYILEHESAELKSVLGGLVLIGSYS,soluble fraction (log2),-0.0612
HMDGTVRGKTTFQELLDWGVPQERIEAVLGGPIPAPGVVIKDYVTAQGKEFSAVRDALQAEVDAVLK,soluble fraction (log2),-0.229
HMDGVLLDHLDGFVTTRRGVEAWLEQPTSFNKPSILLVAADGESTRRAIPSIAFGYDFASRHDIPAYDAG,soluble fraction (log2),-1.29
HMDGVPPAGSRIRLTVSTQVGDKEFEGTLVPPAGVDLLTLKLANGYNLSHSIADVREVVLIEEGLQGEEP,soluble fraction (log2),-2.05
